# From patent US11549134B2, “Modified amadoriase and method for producing the same, agent for improving surfactant resistance of amadoriase and composition for measuring HbA1c using the same” (Kikkoman Corporation, priority 2013, dated 2023)
# B1: CFP-T7: amadoriase derived from the genus Coniochaeta, SEQ ID NO: 1; triple variant with mutations at positions 272, 302 and 388 (protein, listed as Coniochaeta sp.)
# chain: MTSNRADTRVIVVGGGGTIGSSTALHLVRSGYAPANITVLDTFEIPSAQSAGHDLNKIMGIRLRNKVDLQMSLEARQMWKEDELFQPFFHNTGRMDCEHTPEGIEDLKKQYQALHDAGAGLEKTHAWLDNEDEILSKMPLLQRDQIQGWKAIWSQDGGWLAAAKAINAIGQFLKERGVKFGFGGAGSFKQPLFDDEGTTCIGVETADGTKYYADKVVLAAGAWSPTLVDLEDQCCSKAWVYAHIQLTPEEAAEYKGVPVVYNGEFGFFFEPDEFGVIKVCDEFPGFSRFKEHQPYGAPSPKRISVPRSHAKHPTDTYPDASEVSIKKAIATFLPRFQDKELFNRALCWCTDTADAALLMCEHPKWKNFILATGDSGHSFKILPNVGKYVVELIEGRLPEEMAYQWRWRPGGDALKSRRAAPPKDLADMPGWKHDPKL
# Experiments:
# Type in all cases: biochemical
# [1] = Surfactant resistance (residual activity), 0.04% SDS; details: 30 mM MES/21 mM Tris buffer (pH 6.5)
# Description: (§1) An amadoriase crude enzyme solution or an amadoriase purified sample is diluted with a 30 mM MES/21 mM Tris buffer solution (pH6.5) so as to have a concentration of about 1.0 U/ml. To this, CTAC (for example, manufactured by Tokyo Kasei Kogyo Co., Ltd.) is added so as to obtain a final concentration 0.01% (w/v) or 0.04%. The resultant mixture is heated at 30° C. for 5 minutes. After heating, the mixture is diluted double with a 10 mM phosphate buffer (pH7.0) containing 0.15% BSA to prepare a sample. The enzyme activities of the sample before and after a surfactant treatment are measured by the method described in Section B above. […] In this manner, surfactant resistance is evaluated.
# The stability of CFP-D was evaluated using sodium dodecyl sulfate (hereinafter indicated with “SDS”) in place of the surfactant CTAC used in Example 2. The surfactant resistance of the modified amadoriases was evaluated in accordance with a measurement method for surfactant resistance according to Example 1 although under surfactant treatment conditions in which the amadoriases were each diluted in a 30 mM MES/21 mM Tris buffer solution (pH 6.5) and mixed with 0.04% SDS. In this respect, it was confirmed that when the warmed sample was again measured for activity 30 minutes after 2-fold dilution in a BSA solution, there was no change in the activity value.
# [2] = Surfactant resistance (residual activity) of purified enzymes with various surfactants; details: 20 mM potassium phosphate pH 7.0, purified enzyme
# Description: An amadoriase crude enzyme solution or an amadoriase purified sample is diluted with a 30 mM MES/21 mM Tris buffer solution (pH6.5) so as to have a concentration of about 1.0 U/ml. To this, CTAC (for example, manufactured by Tokyo Kasei Kogyo Co., Ltd.) is added so as to obtain a final concentration 0.01% (w/v) or 0.04%. The resultant mixture is heated at 30° C. for 5 minutes. After heating, the mixture is diluted double with a 10 mM phosphate buffer (pH7.0) containing 0.15% BSA to prepare a sample. The enzyme activities of the sample before and after a surfactant treatment are measured by the method described in Section B above. The ratio of activity of the sample after the surfactant treatment relative to the activity of the sample before the surfactant treatment (regarded as 100), i.e., the residual activity (%), is obtained. In this manner, surfactant resistance is evaluated.
# Using various surfactants, the stability of the purified enzymes CFP-T7, CFP-D2, and CFP-D7 obtained as described above was evaluated. The surfactant resistance of the modified amadoriases was evaluated in accordance with a measurement method for surfactant resistance according to Example 1 although under surfactant treatment conditions in which the amadoriases were each diluted in a 20 mM potassium phosphate buffer solution (pH 7.0) and mixed with any of various concentrations of the surfactants. In this respect, it was confirmed that when the warmed sample was again measured for activity 30 minutes after 2-fold dilution in a BSA solution, there was no change in the activity value.
# [3] = Surfactant resistance (residual activity) of CFP-T7 single variants, 0.01% CTAC; details: 30°C, 5 minutes, 30 mM MES/21 mM Tris buffer (pH6.5), crude enzyme
# Description: Reagent 1 (2.7 ml), reagent 2 (100 μl) and reagent 3 (100 μl) were mixed and preheated at 37° C. for 5 minutes. Then, to the mixture, an enzyme solution (100 μl) was added and thoroughly mixed. Thereafter, the absorbance of the mixture at 555 nm is measured by a spectrophotometer (U-3010, manufactured by Hitachi High-Technologies). Measurement is performed at 555 nm from one minute to three minutes and an absorbance change per minute is specified as the measurement value. A control solution is prepared in the same manner as above except that ion-exchanged water (100 μl) is used in place of reagent 3 (100 μl).
# as §1, with “evaluated. […]” for “evaluated.”
# [4] = Measurement of fructosyl peptide sample (αFVH) under mixing of CTAC, change in absorbance at 751 nm
# Description: The purified enzyme of CFP-T7 and CFP-D7 obtained in Example 3-2 was used to measure a sample as shown below. The activity values of CFP-T7 and CFP-D7 were determined using (reagent 1) adjusted to pH 7.0 with αFVH at a final concentration of 5 mM as a substrate according to the method for measuring amadoriase activity.
# (Reagent 4) αFVH (125 mg) was dissolved in ion-exchanged water, the volume of the solution was fixed to 10 ml, and thereby a 30 mM substrate solution was obtained. In addition, the resultant was diluted by 1/714 with a CTAC solution to provide a 42 μM αFVH/0% to 0.2% CTAC solution.
# (Reagent 6) (50 μl) was added to a mixed solution of 135 μl of (reagent 5) warmed at 37° C. for 5 minutes in advance and 25 μl of the sample prepared in (11) above to start reaction, and absorbance at a wavelength of 751 nm after reaction at 37° C. for 5 minutes was measured using an automated analyzer, Bio Majesty JCA-BM1650 (from JEOL Ltd.). Absorbance (reagent blank) at a wavelength of 751 nm measured by a similar operation for (reagent 4) prepared using ion-exchanged water in place of the substrate solution was used as a control to calculate the amount of change in absorbance (difference) when each sample was measured, using the following equation. The final concentration of a colorimetric substrate, DA-64, was 0.15 mM; the final concentration of αFVH in the case of the presence of a substrate was 5 μM; and the length (optical path) of the cell used for absorbance measurement was 1 cm. Amount of change in absorbance=ΔAes−Ae0
# The amount of change in absorbance when αFVH/0% to 0.2% CTAC were used as samples was calculated.
# The purified preparations of amadoriases obtained as described above were used as samples to measure αFVH under the mixing of CTAC using PnFX and NvFX as in Example 5.
molecule,measurement,setting,value
B1,Residual Activity(%),[1],2.76%
same,Residual Activity(%),[2]; Benzylcetyldimethyl ammonium Chloride (BCDAC) 0.04%,1.4%
same,Residual Activity(%),[2]; Benzyldodecyldimethyl ammonium Bromide (BDDAB) 0.10%,1.4%
same,Residual Activity(%),[2]; Benzyltetradecyldimethyl ammonium Chloride (BDTAC) 0.04%,0.7%
same,Residual Activity(%),[2]; Dodecylpyridinium Chloride (1-DPC) 0.16%,3.4%
same,Residual Activity(%),[2]; Dodecyltrimethylammonium Bromide (DTAB) 0.30%,12.2%
same,Residual Activity(%),[2]; Hexadecylpyridinium Bromide (1-CPB) 0.04%,0.7%
same,Residual Activity(%),[2]; Hexadecylpyridinium Chloride (1-CPC) 0.04%,1.4%
same,Residual Activity(%),[2]; Hexadecyltrimethylammonium Chloride (CTAC) 0.04%,2.3%
same,Residual Activity(%),[2]; N-Cetyl-4-methylpyridinium Chloride (4Me-1-CPC) 0.04%,1.5%
same,Residual Activity(%),[2]; Octadecyltrimethylammonium Bromide (STAB) 0.01%,59.7%
same,Residual Activity(%),[2]; Octadecyltrimethylammonium Chloride (STAC) 0.02%,49.3%
same,Residual Activity(%),[2]; Octyltrimethylammonium Bromide (OTAB) 0.80%,87.7%
same,Residual Activity(%),[2]; Octyltrimethylammonium Chloride (OTAC) 1.20%,94.1%
same,Residual Activity(%),[2]; Tetradecyltrimethylammonium Bromide (TTAB) 0.04%,31.7%
same,Residual Activity(%),[2]; Tetradecyltrimethylammonium Chloride (TTAC) 0.04%,4.1%
same,Residual Activity(%),[2]; Tributylhexadecyl phosphonium Bromide (TBCPB) 0.04%,3.1%
same,Residual Activity(%),[3],69.9%
same,Amount of Change in Absorbance at Wavelength of 751 nm under Mixing of Each Concentration of CTAC,"[4]; Mixing of CTAC 0%, as in Example 5, Table 7",0.150
same,Amount of Change in Absorbance at Wavelength of 751 nm under Mixing of Each Concentration of CTAC,"[4]; Mixing of CTAC 0%, αFVH final 5 μM, 37°C, 5 minutes, Table 5",0.150
same,Amount of Change in Absorbance at Wavelength of 751 nm under Mixing of Each Concentration of CTAC,"[4]; Mixing of CTAC 0.005%, αFVH final 5 μM, 37°C, 5 minutes, Table 5",0.111
same,Amount of Change in Absorbance at Wavelength of 751 nm under Mixing of Each Concentration of CTAC,"[4]; Mixing of CTAC 0.01%, as in Example 5, Table 7",0.077
same,Amount of Change in Absorbance at Wavelength of 751 nm under Mixing of Each Concentration of CTAC,"[4]; Mixing of CTAC 0.01%, αFVH final 5 μM, 37°C, 5 minutes, Table 5",0.077
same,Amount of Change in Absorbance at Wavelength of 751 nm under Mixing of Each Concentration of CTAC,"[4]; Mixing of CTAC 0.02%, as in Example 5, Table 7",0.031
same,Amount of Change in Absorbance at Wavelength of 751 nm under Mixing of Each Concentration of CTAC,"[4]; Mixing of CTAC 0.02%, αFVH final 5 μM, 37°C, 5 minutes, Table 5",0.031
same,Amount of Change in Absorbance at Wavelength of 751 nm under Mixing of Each Concentration of CTAC,"[4]; Mixing of CTAC 0.04%, as in Example 5, Table 7",0.005
same,Amount of Change in Absorbance at Wavelength of 751 nm under Mixing of Each Concentration of CTAC,"[4]; Mixing of CTAC 0.04%, αFVH final 5 μM, 37°C, 5 minutes, Table 5",0.005
